Target: soluble recombinant cynomolgus TCR α/β-zipper protein (cynomolgus/rhesus monkey)
Experiment: ELISA, 2 µg/mL coated soluble recombinant cynomolgus TCR α/β-zipper protein

Sequence of soluble recombinant cynomolgus TCR α/β-zipper protein (cynomolgus/rhesus monkey) (alpha, as listed by the source limits assumed, form in doubt, chain 1 of 2): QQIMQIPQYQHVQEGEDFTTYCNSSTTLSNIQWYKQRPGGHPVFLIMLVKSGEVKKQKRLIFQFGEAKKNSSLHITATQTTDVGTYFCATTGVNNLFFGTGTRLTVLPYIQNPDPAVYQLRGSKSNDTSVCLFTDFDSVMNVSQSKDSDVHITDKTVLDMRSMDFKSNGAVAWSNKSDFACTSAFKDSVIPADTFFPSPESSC
Sequence of soluble recombinant cynomolgus TCR α/β-zipper protein (cynomolgus/rhesus monkey) (beta, as listed by the source limits assumed, form in doubt, chain 2 of 2): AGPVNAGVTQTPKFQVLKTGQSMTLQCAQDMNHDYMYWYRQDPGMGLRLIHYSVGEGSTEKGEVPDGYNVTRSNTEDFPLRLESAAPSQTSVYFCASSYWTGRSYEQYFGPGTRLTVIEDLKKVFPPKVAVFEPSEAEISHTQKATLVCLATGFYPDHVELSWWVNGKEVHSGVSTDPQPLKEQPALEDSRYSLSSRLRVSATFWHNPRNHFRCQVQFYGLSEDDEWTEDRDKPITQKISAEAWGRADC

EC50 (read off the curve): 0.1 nM
Substance: anti-non-human primate/Rat TCRα/β antibody clone R73
